Data: patent US20260265373A1 (INMAGENE PTE, published 2026)
Changes are numbered by the printed parent chain.

Tests used:
[1] = biological target: T1, full-length human ILT7 on cells (human, UniProt P59901 24-499); experiment: cell-based or functional assay
[2] = biological target: T1, full-length human ILT7 on cells; experiment: flow cytometry on 293F-human ILT7 cells, MFI
[3] = biological target: T1, full-length human ILT7 on cells; experiment: flow cytometry on 293F-human ILT7 cells, MFI; remark: listed apart in the source
[4] = biological target: T2, full-length cynomolgus ILT7 on cells (cynomolgus, UniProt P59901 24-499 (human entry)); experiment: flow cytometry on CHOK1-cynomolgus ILT7 cells, MFI
T2 construct: also called CHOK1-cynomolgus ILT7 cells

[5] = biological target: T2, full-length cynomolgus ILT7 on cells; experiment: flow cytometry on CHOK1-cynomolgus ILT7 cells, MFI; remark: listed apart in the source
human ILT7-his protein [6] = biological target: T3, human ILT7-his protein (human, UniProt P59901 28-446); experiment: ELISA, OD450; the x axis is labelled 'human ILT7 Conc (µg/ml)'
T3 construct: also called human ILT7 protein

human ILT7-his protein [7] = biological target: T3, human ILT7-his protein; experiment: ELISA, plate coated with human ILT7-his, antibody titrated, OD450
human ILT7-his protein [8] = biological target: T3, human ILT7-his protein; experiment: SPR (Biacore 8K), antibody captured through Fc, human ILT7-his as analyte, 25 C
Description: (§1) Methods: The binding affinity of the humanized cmAb12 antibody, hu-cmAb12, was further measured by surface plasmon resonance (SPR) technology with Biacore 8K. As used herein, “hu-cmAb12” refers to a specific antibody clone variant of the Hu12-04 antibody of Examples 8 and 9. The hu-cmAb12 antibody includes a VL having the amino acid sequence of SEQ ID NO: 19, a VH having the amino acid sequence of SEQ ID NO: 26, and a CH having the amino acid sequence of SEQ ID NO: 55. hu-cmAb12 or Tab1 were immobilized on CM-5 chip. The assay was performed at 25° C. and the running buffer was 1×HEPES (10 mM HEPES, 150 mM NaCl, 3 mM EDTA) with 0.005% Tween-20, pH 7.4. Diluted antibodies were captured on the sensor chip through Fc capture method. Human ILT7-his was used as the analyte, and running buffer was used as the dissociation phase. Similarly, ELISA was conducted as described above. An isotype control antibody and reference anti-ILT7 antibody Tab1 were used as controls.

human ILT7-his protein [9] = biological target: T3, human ILT7-his protein; experiment: ELISA, plate coated with human ILT7-his
Protocol: Methods: The binding of the chimeric anti-ILT7 antibodies identified from the screening, including cmAb12, to human ILT7-his protein was measured by ELISA, along with an isotype antibody hIgG1 as negative control and a reference anti-ILT7 antibody Tab1. 96-well ELISA plates were coated with human ILT7-his in PBS (2 μg/ml) overnight at 4° C. Chimeric antibodies were added to the wells and co-incubated with the coating protein at 37° C. for 1 hour, followed by the addition of secondary HRP labelled antibody. After incubation at 37° C. for 1 more hour, TMB substrate was added to wells and incubated at RT for 15 min. 1 N HCl was added to terminate the reactions. The absorbance at 450 nm was measured with a microplate reader.
Methods: The binding affinity of the humanized cmAb12 antibody, hu-cmAb12, was further measured by surface plasmon resonance (SPR) technology with Biacore 8K. As used herein, “hu-cmAb12” refers to a specific antibody clone variant of the Hu12-04 antibody of Examples 8 and 9. The hu-cmAb12 antibody includes a VL having the amino acid sequence of SEQ ID NO: 19, a VH having the amino acid sequence of SEQ ID NO: 26, and a CH having the amino acid sequence of SEQ ID NO: 55. hu-cmAb12 or Tab1 were immobilized on CM-5 chip. The assay was performed at 25° C. and the running buffer was 1×HEPES (10 mM HEPES, 150 mM NaCl, 3 mM EDTA) with 0.005% Tween-20, pH 7.4. […]

[10] = biological target: T1, full-length human ILT7 on cells; experiment: flow cytometry on 293F-human ILT7 cells
Protocol: (§2) Methods: The binding affinities of chimeric anti-ILT7 antibodies identified from the screening, including cmAb12, to human ILT7 or cynomolgus ILT7 expressed on cell membrane were measured by flow cytometry. Vectors containing coding sequences for full-length cynomolgus ILT7 (SEQ ID NO: 6) and hFcεRiγ (SEQ ID NO: 7) were generated. […] Both cell lines were seeded, resuspended, and incubated with the chimeric antibodies at 4° C. for 1 hour. Cells were then washed with cold FACS buffer (PBS+2% FBS), resuspended, and incubated with secondary antibody at 4° C. for 1 hour. hIgG1 and Tab1 were used as controls.
(§3) Cells were washed with cold FACS buffer (PBS+2% FBS) by centrifuging, followed by addition of secondary antibodies, and incubation at 4° C. for 1 hour. An isotype control antibody and reference anti-ILT7 antibody Tab1 were used as negative and positive controls. The concentration-MFI curves of FACs were then determined.

[11] = biological target: T2, full-length cynomolgus ILT7 on cells; experiment: flow cytometry on CHOK1-cynomolgus ILT7 cells
Protocol: as §2, §3

human ILT7-his protein [12] = biological target: T3, human ILT7-his protein; experiment: SPR, Biacore 8K, antibody captured on the chip, human ILT7-his as analyte, 25° C.
Description: as §1

LILRA3/ILT6 [13] = biological target: T4, LILRA3/ILT6 (UniProt Q8N6C8 24-439); experiment: ELISA, plate coated with 1 µg/ml LILR protein
Protocol: (§4) Methods: The binding specificities of the chimeric antibodies, including cmAb12, for ILT7 over its related 10 LILR superfamily member proteins were evaluated by ELISA. Plates coated with 1 μg/ml LILR superfamily protein as indicated were incubated with chimeric antibodies at 37° C. for 1 hour, followed by the secondary antibody.

LILRA5/ILT11 [14] = biological target: T5, LILRA5/ILT11 (UniProt A6NI73 42-268, limits assumed); experiment: ELISA, plate coated with 1 µg/ml LILR protein
Protocol: as §4

LILRA6/ILT8 [15] = biological target: T6, LILRA6/ILT8 (UniProt Q6PI73 24-447, limits assumed); experiment: ELISA, plate coated with 1 µg/ml LILR protein
Protocol: as §4

LILRB1/ILT2 [16] = biological target: T7, LILRB1/ILT2 (UniProt Q8NHL6 24-461, limits assumed); experiment: ELISA, plate coated with 1 µg/ml LILR protein
Protocol: as §4

LILRB2/ILT4 [17] = biological target: T8, LILRB2/ILT4 (UniProt Q8N423 22-460, limits assumed); experiment: ELISA, plate coated with 1 µg/ml LILR protein
Protocol: as §4

LILRB3/ILT5 [18] = biological target: T9, LILRB3/ILT5 (UniProt O75022 24-443, limits assumed); experiment: ELISA, plate coated with 1 µg/ml LILR protein
Protocol: as §4

LILRB4/ILT3 [19] = biological target: T10, LILRB4/ILT3 (UniProt Q8NHJ6 22-259); experiment: ELISA, plate coated with 1 µg/ml LILR protein
Protocol: as §4

LILB5 [20] = biological target: T11, LILB5 (UniProt O75023 24-458, limits assumed); experiment: ELISA, plate coated with 1 µg/ml LILR protein
T11 construct: also called LILRB5 (printed as LILB5)
Protocol: as §4

LILRA1 [21] = biological target: T12, LILRA1 (UniProt O75019 17-461, limits assumed); experiment: ELISA, plate coated with 1 µg/ml LILR protein
Protocol: as §4

LILRA2/ILT1 [22] = biological target: T13, LILRA2/ILT1 (UniProt Q8N149 24-449, limits assumed); experiment: ELISA, plate coated with 1 µg/ml LILR protein
Protocol: as §4

LILRA3/ILT6 [23] = biological target: T4, LILRA3/ILT6; experiment: ELISA, plate coated with 1 µg/ml LILR superfamily protein
Protocol: as §4

LILRA5/ILT11 [24] = biological target: T5, LILRA5/ILT11; experiment: as above
Protocol: as §4

LILRA6/ILT8 [25] = biological target: T6, LILRA6/ILT8; experiment: as above
Protocol: as §4

LILRB1/ILT2 [26] = biological target: T7, LILRB1/ILT2; experiment: as above
Protocol: as §4

LILRB2/ILT4 [27] = biological target: T8, LILRB2/ILT4; experiment: as above
Protocol: as §4

LILRB3/ILT5 [28] = biological target: T9, LILRB3/ILT5; experiment: as above
Protocol: as §4

LILRB4/ILT3 [29] = biological target: T10, LILRB4/ILT3; experiment: as above
Protocol: as §4

LILB5 [30] = biological target: T11, LILB5; experiment: as above
Protocol: as §4

LILRA1 [31] = biological target: T12, LILRA1; experiment: as above
Protocol: as §4

LILRA2/ILT1 [32] = biological target: T13, LILRA2/ILT1; experiment: as above
Protocol: as §4

T1 sequence (P59901 other isoform, or with tags, fused parts or gaps): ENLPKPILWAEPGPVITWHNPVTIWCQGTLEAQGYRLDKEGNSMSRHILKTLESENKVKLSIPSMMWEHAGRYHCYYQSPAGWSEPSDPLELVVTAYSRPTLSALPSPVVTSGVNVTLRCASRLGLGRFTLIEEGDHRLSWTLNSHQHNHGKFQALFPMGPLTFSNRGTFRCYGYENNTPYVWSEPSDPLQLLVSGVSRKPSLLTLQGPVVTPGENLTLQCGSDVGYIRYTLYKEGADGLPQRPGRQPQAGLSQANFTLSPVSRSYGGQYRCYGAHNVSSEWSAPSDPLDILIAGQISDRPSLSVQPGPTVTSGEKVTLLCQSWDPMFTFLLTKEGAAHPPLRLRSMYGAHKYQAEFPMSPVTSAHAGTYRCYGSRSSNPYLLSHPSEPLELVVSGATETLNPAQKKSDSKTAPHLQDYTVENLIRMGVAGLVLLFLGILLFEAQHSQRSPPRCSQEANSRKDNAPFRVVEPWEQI
T2 sequence (P59901 other isoform, or with tags, fused parts or gaps limits assumed): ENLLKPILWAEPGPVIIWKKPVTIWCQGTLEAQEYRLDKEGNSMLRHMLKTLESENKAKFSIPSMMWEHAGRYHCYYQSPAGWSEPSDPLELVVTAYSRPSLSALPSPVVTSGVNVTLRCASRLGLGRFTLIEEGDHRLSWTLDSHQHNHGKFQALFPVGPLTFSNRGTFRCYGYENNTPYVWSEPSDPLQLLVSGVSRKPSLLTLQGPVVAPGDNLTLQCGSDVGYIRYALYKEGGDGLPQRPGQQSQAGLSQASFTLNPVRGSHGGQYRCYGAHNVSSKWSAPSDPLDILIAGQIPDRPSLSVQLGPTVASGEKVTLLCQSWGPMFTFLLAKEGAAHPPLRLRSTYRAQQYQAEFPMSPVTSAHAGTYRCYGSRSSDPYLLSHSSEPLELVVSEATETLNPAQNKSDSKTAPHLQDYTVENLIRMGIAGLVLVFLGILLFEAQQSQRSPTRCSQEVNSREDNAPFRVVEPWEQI
T3 sequence (P59901 other isoform, or with tags, fused parts or gaps): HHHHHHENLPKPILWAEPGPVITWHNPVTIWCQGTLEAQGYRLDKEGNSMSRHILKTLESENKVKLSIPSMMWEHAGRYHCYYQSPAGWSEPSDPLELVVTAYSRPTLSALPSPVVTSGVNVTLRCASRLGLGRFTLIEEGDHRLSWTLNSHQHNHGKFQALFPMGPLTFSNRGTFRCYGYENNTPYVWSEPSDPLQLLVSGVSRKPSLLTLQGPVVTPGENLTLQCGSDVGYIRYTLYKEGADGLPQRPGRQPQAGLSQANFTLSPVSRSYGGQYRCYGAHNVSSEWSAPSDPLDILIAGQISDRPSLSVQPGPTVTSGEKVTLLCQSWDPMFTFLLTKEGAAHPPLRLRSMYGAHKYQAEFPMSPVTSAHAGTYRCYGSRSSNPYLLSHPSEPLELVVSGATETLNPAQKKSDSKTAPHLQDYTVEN
T4 sequence (Q8N6C8 24-439 limits assumed): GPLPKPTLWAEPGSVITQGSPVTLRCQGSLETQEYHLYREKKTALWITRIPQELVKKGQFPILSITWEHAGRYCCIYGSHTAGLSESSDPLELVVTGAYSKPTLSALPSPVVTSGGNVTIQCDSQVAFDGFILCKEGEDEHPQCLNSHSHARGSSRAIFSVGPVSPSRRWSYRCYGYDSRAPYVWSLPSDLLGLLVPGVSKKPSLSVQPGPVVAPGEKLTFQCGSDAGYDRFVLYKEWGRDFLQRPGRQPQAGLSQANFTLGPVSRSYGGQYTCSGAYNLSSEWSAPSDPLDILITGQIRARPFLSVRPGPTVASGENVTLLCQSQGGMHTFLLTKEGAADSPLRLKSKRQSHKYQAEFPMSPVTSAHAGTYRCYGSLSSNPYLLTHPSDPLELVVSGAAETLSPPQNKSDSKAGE
T11 sequence (O75023 24-458 limits assumed): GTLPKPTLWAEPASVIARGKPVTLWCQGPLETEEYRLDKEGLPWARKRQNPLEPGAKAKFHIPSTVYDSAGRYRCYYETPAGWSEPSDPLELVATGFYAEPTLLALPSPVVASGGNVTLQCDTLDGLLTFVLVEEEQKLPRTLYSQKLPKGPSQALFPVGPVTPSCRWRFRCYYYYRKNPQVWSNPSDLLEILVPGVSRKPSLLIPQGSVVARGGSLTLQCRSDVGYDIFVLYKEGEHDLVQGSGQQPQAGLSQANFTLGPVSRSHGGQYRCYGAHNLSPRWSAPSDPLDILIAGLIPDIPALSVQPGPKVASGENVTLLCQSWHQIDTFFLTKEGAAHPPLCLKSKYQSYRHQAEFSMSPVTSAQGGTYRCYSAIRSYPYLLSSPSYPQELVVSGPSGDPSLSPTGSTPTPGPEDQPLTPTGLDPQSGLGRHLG
T9 sequence (O75022 24-443 limits assumed): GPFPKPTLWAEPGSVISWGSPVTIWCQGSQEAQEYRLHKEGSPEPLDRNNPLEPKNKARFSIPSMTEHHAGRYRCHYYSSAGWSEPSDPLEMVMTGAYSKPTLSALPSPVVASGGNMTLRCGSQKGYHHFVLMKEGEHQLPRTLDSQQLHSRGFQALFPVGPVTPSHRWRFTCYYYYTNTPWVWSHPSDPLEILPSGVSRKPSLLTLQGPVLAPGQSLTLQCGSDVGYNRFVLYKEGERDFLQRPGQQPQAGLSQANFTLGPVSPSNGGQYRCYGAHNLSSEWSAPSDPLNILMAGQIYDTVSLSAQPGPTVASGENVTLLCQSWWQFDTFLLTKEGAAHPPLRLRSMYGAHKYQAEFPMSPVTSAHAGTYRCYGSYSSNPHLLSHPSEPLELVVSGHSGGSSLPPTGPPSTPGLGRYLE
T5 sequence (A6NI73 42-268 limits assumed): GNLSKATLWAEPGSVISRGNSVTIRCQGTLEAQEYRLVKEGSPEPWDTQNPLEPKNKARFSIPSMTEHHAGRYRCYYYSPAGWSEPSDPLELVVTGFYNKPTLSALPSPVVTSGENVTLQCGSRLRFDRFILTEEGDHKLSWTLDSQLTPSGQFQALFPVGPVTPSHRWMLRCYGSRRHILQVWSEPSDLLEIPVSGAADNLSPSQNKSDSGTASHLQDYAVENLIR
T12 sequence (O75019 17-461 limits assumed): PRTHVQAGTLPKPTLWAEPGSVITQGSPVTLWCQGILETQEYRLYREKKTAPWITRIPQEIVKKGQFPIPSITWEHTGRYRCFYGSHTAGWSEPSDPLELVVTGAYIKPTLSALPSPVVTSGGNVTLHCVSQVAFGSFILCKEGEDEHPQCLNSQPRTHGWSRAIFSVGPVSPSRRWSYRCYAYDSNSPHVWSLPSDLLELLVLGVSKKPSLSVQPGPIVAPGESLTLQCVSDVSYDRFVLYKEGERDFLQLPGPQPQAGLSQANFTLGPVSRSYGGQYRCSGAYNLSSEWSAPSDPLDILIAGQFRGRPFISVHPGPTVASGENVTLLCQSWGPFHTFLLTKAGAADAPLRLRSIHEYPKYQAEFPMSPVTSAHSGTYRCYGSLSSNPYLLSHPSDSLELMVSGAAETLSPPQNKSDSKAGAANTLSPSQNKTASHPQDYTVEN
T6 sequence (Q6PI73 24-447 limits assumed): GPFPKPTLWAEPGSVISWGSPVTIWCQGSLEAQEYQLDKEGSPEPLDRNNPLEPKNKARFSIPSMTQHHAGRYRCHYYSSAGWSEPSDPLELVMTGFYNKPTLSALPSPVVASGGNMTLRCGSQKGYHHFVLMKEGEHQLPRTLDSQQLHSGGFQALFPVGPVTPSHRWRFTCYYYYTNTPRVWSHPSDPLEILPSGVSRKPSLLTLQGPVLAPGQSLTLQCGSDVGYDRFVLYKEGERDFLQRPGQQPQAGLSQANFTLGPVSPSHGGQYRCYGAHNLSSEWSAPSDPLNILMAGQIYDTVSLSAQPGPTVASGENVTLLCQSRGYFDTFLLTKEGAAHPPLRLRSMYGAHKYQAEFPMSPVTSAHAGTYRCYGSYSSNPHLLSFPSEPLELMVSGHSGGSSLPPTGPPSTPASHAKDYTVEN
T13 sequence (Q8N149 24-449 limits assumed): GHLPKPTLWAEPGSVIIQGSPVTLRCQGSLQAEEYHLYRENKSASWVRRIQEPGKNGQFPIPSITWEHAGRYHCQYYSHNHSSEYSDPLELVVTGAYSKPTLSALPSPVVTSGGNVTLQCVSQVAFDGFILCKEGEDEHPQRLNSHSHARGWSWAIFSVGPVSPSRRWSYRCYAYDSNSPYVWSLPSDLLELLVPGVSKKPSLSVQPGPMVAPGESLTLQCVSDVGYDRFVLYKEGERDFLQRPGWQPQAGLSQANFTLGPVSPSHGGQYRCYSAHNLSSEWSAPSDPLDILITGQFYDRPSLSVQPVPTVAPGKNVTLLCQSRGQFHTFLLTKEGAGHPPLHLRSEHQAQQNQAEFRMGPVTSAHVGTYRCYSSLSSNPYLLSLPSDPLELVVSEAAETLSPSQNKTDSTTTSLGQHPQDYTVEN
T8 sequence (Q8N423 22-460 limits assumed): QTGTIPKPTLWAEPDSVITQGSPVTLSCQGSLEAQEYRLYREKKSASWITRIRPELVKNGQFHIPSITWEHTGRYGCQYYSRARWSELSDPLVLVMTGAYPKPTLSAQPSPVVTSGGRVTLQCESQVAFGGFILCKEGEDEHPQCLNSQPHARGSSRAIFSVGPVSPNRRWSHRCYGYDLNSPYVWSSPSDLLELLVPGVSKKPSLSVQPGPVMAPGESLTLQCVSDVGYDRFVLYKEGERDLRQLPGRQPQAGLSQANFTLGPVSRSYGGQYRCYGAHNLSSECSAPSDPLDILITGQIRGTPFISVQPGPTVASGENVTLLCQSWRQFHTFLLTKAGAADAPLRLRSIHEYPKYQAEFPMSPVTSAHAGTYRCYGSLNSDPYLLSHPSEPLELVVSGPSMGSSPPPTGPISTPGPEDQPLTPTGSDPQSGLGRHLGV

B1: benchmark antibody daxdilimab (Tab1) (antibody, V domains shown)
VH: QVQLQQSGAEVKKPGASVKVSCKASGYTFTSYGISWVRQAPGQGLEWMGWISAYNGNTNYAQKLQGRVTMTIDTSTSTAYMELRSLRSDDTAVYYCARNGLWGWDSDAFDIWGRGTLVTVSS
VL: QSALTQPASVSGSPGQSITISCTGTSSDVGGYNYVSWYQQHPGKAPKLMIYDVSNRPSGVSNRFSGSKSGNTASLTISGLQAEDEADYYCSSYTSSSTVVFGGGTKVTVL
[1]
  NK-dependent ADCC activity (% Cytotoxicity), EC50: 0.0103 nM
[2]
  EC50: 0.383 nM
[3]
  EC50: 0.579 nM
[4]
  EC50: 1.1 nM
[5]
  EC50: 2.46 nM
Human ILT7-his protein [6]
  EC50: 0.0398 µg/mL
Human ILT7-his protein [7]
  EC50: 0.0682 nM
Human ILT7-his protein [8]
  Kd: 71.3 nM
  koff: 0.0278 s⁻¹
  kon: 390000 M⁻¹ s⁻¹

B2: humanized antibody hu-cmAb12 (antibody, V domains shown)
VH: QVQLVQSGAEVKKPGASVKVSCKASGYTFTEYPMHWVRQAPGQRLEWMGMIYTDTGEPAYAEEFKGRVTITRDTSASTAYMELSSLRSEDTAVYYCARELGQNFDYWGQGTTVTVSS
VL: DIVLTQSPASLAVSPGQRATITCRASQSVSTSSYSYMHWYQQKPGQPPKLLIYYASNLESGVPARFSGSGSGTDFTLTINPVEAEDTANYYCQHSWDIPYTFGQGTKLEIK
modifications: Example 12: the antibody was conjugated with the dye Alexa488, which the letters do not carry.
notes: also called antibody clone variant of Hu12-04
[1]
  NK-dependent ADCC activity (% Cytotoxicity), EC50: 0.0038 nM
  macrophage-dependent ADCP activity, EC50 (Donor 1): 0.881 nM
  macrophage-dependent ADCP activity, EC50 (Donor 2): 2.17 nM
  macrophage-dependent ADCP activity, EC50 (Donor 3): 1.58 nM
  neutrophil-dependent ADCC activity (% Cytotoxicity), EC50: 16.1 nM
Human ILT7-his protein [9]
  EC50: 0.0791 µg/mL
[10]
  EC50: 0.343 nM
[11]
  EC50: 1.65 nM
Human ILT7-his protein [12]
  Kd: 111 nM
Human ILT7-his protein [8]
  koff: 0.106 s⁻¹
  kon: 959000 M⁻¹ s⁻¹

B3: chimeric antibody Ab12 (cmAb12) (antibody, human IgG1, V domains shown)
VH: QIQLVQSGPELKKPGETVKISCKASGYTFTEYPMHWVKQAPGKGFKWMGMIYTDTGEPAYAEEFKGRFAFSLETSASTAYLQINNLKNEDTATYFCVRELGQNFDYWGQGTTLTVSS
VL: B2 VL with P15L, T22S, Y53K, T78N, N80H, A84E, N89T, Q104G
notes: also called chimeric Ab12
Human ILT7-his protein [9]
  EC50: 0.0751 nM
[10]
  EC50: 0.312 nM
[11]
  EC50: 0.939 nM
LILRA3/ILT6 [13]
  ELISA OD 450 nM: 0.1 OD450
LILRA5/ILT11 [14]
  ELISA OD 450 nM: 0.1 OD450
LILRA6/ILT8 [15]
  ELISA OD 450 nM: 0.1 OD450
LILRB1/ILT2 [16]
  ELISA OD 450 nM: 0.1 OD450
LILRB2/ILT4 [17]
  ELISA OD 450 nM: 0.3 OD450
LILRB3/ILT5 [18]
  ELISA OD 450 nM: 0.1 OD450
LILRB4/ILT3 [19]
  ELISA OD 450 nM: 0.1 OD450
LILB5 [20]
  ELISA OD 450 nM: 0.1 OD450
LILRA1 [21]
  ELISA OD 450 nM: 0.1 OD450
LILRA2/ILT1 [22]
  ELISA OD 450 nM: 0.2 OD450
LILRA3/ILT6 [23]
  binding result: no binding
LILRA5/ILT11 [24]
  binding result: no binding
LILRA6/ILT8 [25]
  binding result: no binding
LILRB1/ILT2 [26]
  binding result: no binding
LILRB2/ILT4 [27]
  binding result: no binding
LILRB3/ILT5 [28]
  binding result: no binding
LILRB4/ILT3 [29]
  binding result: no binding
LILB5 [30]
  binding result: no binding
LILRA1 [31]
  binding result: no binding
LILRA2/ILT1 [32]
  binding result: no binding
